Results from article PMC3814720, “Pro-inflammatory cytokines can act as intracellular modulators of commensal bacterial virulence”.

Molecular target: TNF-α (human, UniProt P01375 77-233)
Assay: EMSA; 5-20 uM TNF-α
Settings: chain copies: 3; label: 32P 5'-end; blunt

Chain of TNF-α (P01375 77-233): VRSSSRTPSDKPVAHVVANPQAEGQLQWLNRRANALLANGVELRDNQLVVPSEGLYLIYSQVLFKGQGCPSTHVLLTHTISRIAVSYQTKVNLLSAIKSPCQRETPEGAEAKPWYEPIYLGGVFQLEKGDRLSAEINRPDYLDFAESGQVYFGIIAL

B1: app internal region (dsDNA)
DNA 1: GTTTTTTACCAACAGGAGGCTCATTTGGCGACAGTGGCTCACCAATGTTTATCTATGATGCCCAAAAGCAAAAGTG
DNA 2: CACTTTTGCTTTTGGGCATCATAGATAAACATTGGTGAGCCACTGTCGCCAAATGAGCCTCCTGTTGGTAAAAAAC
B1: no binding.
